Assay results taken from patent US9675789B2, “Embeddable micro-needle patch for transdermal drug delivery and method of manufacturing the same” (NATIONAL CHENG KUNG UNIVERSITY, priority 2012, dated 2017).

System: IgG antibodies induced by ovalbumin
Assay: immunity test: IgG antibodies induced by ovalbumin in blood serum, ELISA 450 nm absorbance
Assay type: in vivo, sprague dawley (SD) rats
Details: SD rats, 1 mg ovalbumin at zero and fourteenth day, seventh day
Description: In another aspect of the embodiment, sprague dawley (SD) rats having four to six weeks of age are divided into three groups. Immune response is induced at zero day and fourteenth days by respectively encapsulating 1 mg of ovalbumin in the embeddable micro-needle patch for transdermal drug delivery, injecting saline in muscles, and injecting 1 mg of ovalbumin solution in muscles so as to produce correspondingly IgG antibodies, and blood is drawn from venous sinus under collarbones of the rats at zero day, seventh day, fourteenth day and twenty-first day. The drawn blood is detected by ELISA (enzyme-linked immunosorbent assay) to obtain 450 nm absorbance such that the contents of IgG antibodies antibody induced by ovalbumin in blood serum are determined.

B1: ovalbumin (protein, UniProt P01012 2-386, looked up)
Ovalbumin: GSIGAASMEFCFDVFKELKVHHANENIFYCPIAIMSALAMVYLGAKDSTRTQINKVVRFDKLPGFGDSIEAQCGTSVNVHSSLRDILNQITKPNDVYSFSLASRLYAEERYPILPEYLQCVKELYRGGLEPINFQTAADQARELINSWVESQTNGIIRNVLQPSSVDSQTAMVLVNAIVFKGLWEKAFKDEDTQAMPFRVTEQESKPVQMMYQIGLFRVASMASEKMKILELPFASGTMSMLVLLPDEVSGLEQLESIINFEKLTEWTSSNVMEERKIKVYLPRMKMEEKYNLTSVLMAMGITDVFSSSANLSGISSAESLKISQAVHAAHAEINEAGREVVGSAEAGVDAASVSEEFRADHPFLFCIKHIATNAVLFFGRCVSP
notes: 1 mg of ovalbumin solution injected in muscles, conventional muscle injection comparison group
In the case of B1, the “expression of induced IgG antibodies in blood serum compared with saline control group” value is reported as “can be discovered”.
